Values belong to the binder of their own block, whether it stands above or below them.
Key:
[1] = target: T1, Recombinant human CD137 Fc fusion protein (Sino Biological) (human, UniProt Q07011 24-186); assay: ForteBio Octet BLI; antigen-Fc on Protein A sensor, 100 nM construct
T1 construct: not shown: Fc part of the bought fusion protein
Procedure: (§1) Antigen binding of MIAC constructs were analyzed using ForteBio Octet. […] All antigens were reconstituted in PBS at the final concentration of 0.25 ug/ul. […] Association proceeded by dipping sensors in 100 nM MIAC constructs for 5 minutes and disassociation occurred in blank kinetics buffer for 5 minutes. For CD3 epsilon binding, antigen was immobilized on Ni-NTA sensors; association was performed in 50 nM MIAC constructs. Binding data were analyzed using ForteBio Data Analysis 9.0 software.

[2] = target: T2, Recombinant human PD-1 Fc fusion protein (Sino Biological) (human, UniProt Q15116 25-167); assay: ForteBio Octet BLI; antigen-Fc on Protein A sensor, construct in solution
T2 construct: not shown: Fc part of the bought fusion protein
T2 sequence (Q15116 25-167 limits assumed): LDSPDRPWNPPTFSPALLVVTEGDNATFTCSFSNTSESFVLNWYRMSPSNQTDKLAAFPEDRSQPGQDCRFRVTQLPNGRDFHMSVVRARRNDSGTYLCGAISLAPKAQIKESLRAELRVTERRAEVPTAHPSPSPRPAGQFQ

[3] = target: T2, Recombinant human PD-1 Fc fusion …; assay: ForteBio Octet BLI; antigen-Fc on Protein A sensor, 100 nM construct
Procedure: as §1

[4] = target: T1, Recombinant human CD137 Fc fusion …; assay: ForteBio Octet BLI; antigen-Fc on Protein A sensor, construct in solution
[5] = target: T3, Recombinant human Her2 Fc fusion protein (Sino Biological) (human, UniProt P04626 23-652); assay: as above
T3 construct: not shown: Fc part of the bought fusion protein

Kd [1]: 0.23 nM | binding result [2]: no binding (tested: 100 nM)
B1: PID-92 (bispecific Her2/CD137 MIAC; Urelumab IgG1 with Trastuzumab scFv at the heavy chain C-termini) (bispecific antibody)
heavy: not shown
light: not shown
notes: also called α-Her2/α-CD137 MIAC; PID92 [Her2/CD137]

Kd [3]: 0.12 nM | binding result [4]: no binding (tested: 100 nM)
B2: PID-7 (bispecific Her2/PD-1 MIAC; Pembrolizumab IgG1 with Trastuzumab scFv at the heavy chain C-termini) (bispecific antibody)
heavy: not shown
light: EIVLTQSPATLSLSPGERATLSCRASKGVSTSGYSYLHWYQQKPGQAPRLLIYLASYLESGVPARFSGSGSGTDFTLTISSLEPEDFAVYYCQHSRDLPLTFGGGTKVEIKRTVAAPSVFIFPPSDEQLKSGTASVVCLLNNFYPREAKVQWKVDNALQSGNSQESVTEQDSKDSTYSLSSTLTLSKADYEKHKVYACEVTHQGLSSPVTKSFNRGEC
notes: also called α-Her2/α-PD-1

Kd [1]: 0.7 nM | binding result [2]: no binding (tested: 100 nM) | binding result [5]: no binding (tested: 100 nM)
B3: PID-90 (monospecific anti-CD137; Urelumab Fab domain, human IgG1 constant domain) (antibody, V domains shown)
VH: QVQLQQWGAGLLKPSETLSLTCAVYGGSFSGYYWSWIRQSPEKGLEWIGEINHGGYVTYNPSLESRVTISVDTSKNQFSLKLSSVTAADTAVYYCARDYGPGNYDWYFDLWGRGTLVTVSS
VL: EIVLTQSPATLSLSPGERATLSCRASQSVSSYLAWYQQKPGQAPRLLIYDASNRATGIPARFSGSGSGTDFTLTISSLEPEDFAVYYCQQRSNWPPALTFGGGTKVEIKR
notes: also called PID90 (CD137)

binding result [4]: no binding (tested: 100 nM) | binding result [5]: no binding (tested: 100 nM)
B4: PID-2 (monospecific anti-PD-1; Pembrolizumab Fab domain, human IgG1 constant domain) (antibody, V domains shown)
VH: QVQLVQSGVEVKKPGASVKVSCKASGYTFTNYYMYWVRQAPGQGLEWMGGINPSNGGTNFNEKFKNRVTLTTDSSTTTAYMELKSLQFDDTAVYYCARRDYRFDMGFDYWGQGTTVTVSS
VL: EIVLTQSPATLSLSPGERATLSCRASKGVSTSGYSYLHWYQQKPGQAPRLLIYLASYLESGVPARFSGSGSGTDFTLTISSLEPEDFAVYYCQHSRDLPLTFGGGTKVEIKR
notes: also called PID2 (PD-1)

Reference: US20180318417A1 (COMPASS THERAPEUTICS, published 2018)
